We go through one molecule from patent publication US20200407457A1 (YANTAI OBIOADC BIOMEDICAL TECHNOLOGY, published 2020).

Test [1] has as its target T1, TRAILR2 receptor on the surface of human tumor cells (human, UniProt O14763 56-440). Put plainly: cell-based or functional assay.
For test [2], the target named is T1, TRAILR2 receptor on the surface of …. Description: cell-based or functional assay. The source holds these as a separate data set.

Read-outs that look alike come from different tables or passages of the source.

B1: Zaptuzumab (antibody, V domains shown)
VH: QVQLVQSGSELKKPGASVKVSCKASGYTFTDFSMNWVRQAPGQGLEWMGWINTETGEPTYADDFKGRFVFSLDTSVSTAYLQISSLKAEDTAVYYCARIDYWGQGTTVTVSS
VL: DIVMTQSPLSLPVTPGEPASISCRSSQSLVHSNGNTYLHWYLQKPGQSPQLLIYKVSNRFSGVPDRFSGSGSGTDFTLKISRVEAEDVGVYYCFQSTHVPHTFGQGTKLEIKR
Regarding B1, in test [1], the “IC50, cytotoxic effect on Jurkat E6-1 cells (CellTiter-Glo, 72 h)” value was found to be 0.201 µg/mL; the “IC50, cytotoxic effect on Mia PaCa-2 cells (CellTiter-Glo, 72 h)” value was 3.01 µg/mL; the “IC50, cytotoxic effect on NCI-H1975 cells (CellTiter-Glo, 72 h)” value was 0.542 µg/mL; the “IC50, cytotoxic effect on SMMC-7721 cells (CellTiter-Glo, 72 h)” value turned out to be 6.12 µg/mL. Moreover, in test [1], the “eff. (efficiency %), cytotoxic effect on Jurkat E6-1 cells” value was 90.7%; the “eff. (efficiency %), cytotoxic effect on Mia PaCa-2 cells” value stood at 27.5%; the “eff. (efficiency %), cytotoxic effect on NCI-H1975 cells” value stood at 62.4%; the “eff. (efficiency %), cytotoxic effect on SMMC-7721 cells” value was 48%. Further, in test [2], the “IC50, cytotoxic effect on Jurkat E6-1 cells (CellTiter-Glo, 72 h)” value came out at 0.201 µg/mL; the “IC50, cytotoxic effect on MSTO-211H cells (CellTiter-Glo, 72 h)” value is 0.514 µg/mL; the “IC50, cytotoxic effect on Mia PaCa-2 cells (CellTiter-Glo, 72 h)” value turned out to be 2.9 µg/mL; the “IC50, cytotoxic effect on Reh cells (CellTiter-Glo, 72 h)” value is 1.59 µg/mL. Besides, in test [2], the “eff. (efficiency %), cytotoxic effect on Jurkat E6-1 cells” value was found to be 90.7%; the “eff. (efficiency %), cytotoxic effect on MSTO-211H cells” value is 47.8%; the “eff. (efficiency %), cytotoxic effect on Mia PaCa-2 cells” value amounted to 33.2%; the “eff. (efficiency %), cytotoxic effect on Reh cells” value was 45%.
